We go through two substances from patent US7101542.

In test [1] the target is IL-4 receptor (IL-4R) on C1498 tumor cells (UniProt P16382). Briefly: cell-based or functional assay.
Test [2] addresses DT390IL-4 fusion protein (murine) (UniProt P00588). Briefly: cell-based or functional assay.
Chain of UniProt P00588 (P00588 33-390, tags or fused parts left off): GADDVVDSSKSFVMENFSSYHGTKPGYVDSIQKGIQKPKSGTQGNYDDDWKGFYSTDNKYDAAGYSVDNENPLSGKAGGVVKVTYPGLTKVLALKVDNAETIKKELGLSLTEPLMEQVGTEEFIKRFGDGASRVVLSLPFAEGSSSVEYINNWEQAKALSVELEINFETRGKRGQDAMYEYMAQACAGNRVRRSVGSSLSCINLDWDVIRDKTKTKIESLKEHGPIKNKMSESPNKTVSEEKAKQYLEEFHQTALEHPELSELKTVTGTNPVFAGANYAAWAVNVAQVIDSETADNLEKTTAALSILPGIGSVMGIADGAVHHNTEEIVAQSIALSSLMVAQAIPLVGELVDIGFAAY

Chain of UniProt P16382 (P16382 26-810 limits assumed): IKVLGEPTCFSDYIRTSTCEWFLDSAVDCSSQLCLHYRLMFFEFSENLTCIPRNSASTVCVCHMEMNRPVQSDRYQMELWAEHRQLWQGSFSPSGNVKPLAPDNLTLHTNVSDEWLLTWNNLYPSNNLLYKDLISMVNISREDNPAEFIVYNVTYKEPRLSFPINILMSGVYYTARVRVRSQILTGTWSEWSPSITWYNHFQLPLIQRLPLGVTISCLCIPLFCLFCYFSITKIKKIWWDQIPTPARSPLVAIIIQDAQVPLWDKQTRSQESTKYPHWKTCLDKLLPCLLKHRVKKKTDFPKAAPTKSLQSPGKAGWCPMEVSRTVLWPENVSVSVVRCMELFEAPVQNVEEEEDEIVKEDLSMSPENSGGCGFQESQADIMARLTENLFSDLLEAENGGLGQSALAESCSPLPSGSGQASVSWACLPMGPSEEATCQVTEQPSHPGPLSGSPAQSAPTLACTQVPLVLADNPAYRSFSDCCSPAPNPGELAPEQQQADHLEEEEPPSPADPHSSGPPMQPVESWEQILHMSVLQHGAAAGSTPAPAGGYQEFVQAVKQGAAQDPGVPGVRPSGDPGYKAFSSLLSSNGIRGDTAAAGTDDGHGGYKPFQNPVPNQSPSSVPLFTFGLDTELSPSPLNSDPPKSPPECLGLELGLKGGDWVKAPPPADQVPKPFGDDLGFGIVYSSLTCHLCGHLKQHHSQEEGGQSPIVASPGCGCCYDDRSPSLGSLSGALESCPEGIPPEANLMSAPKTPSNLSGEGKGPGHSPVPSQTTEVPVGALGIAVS

In test [1], “DT390IL-4 fusion protein (from UniProt P00588 33-390; P07750 21-140)” returned a viability of C1498 cells of 10 nM and a viability of IL-4R+ C1498 leukemia cells (trypan blue, live cell count) of 1 nM.

“rat IgG1 anti-mouse IL-4 monoclonal antibody (Clone 11B11)”: the blocking of C1498 killing by DT390IL-4 in test [2] worked out at 20 µM.
